Starred links: 1 amine or outer side, 2 acyl side, 3 side chain; linkers in the order of their positions; H or OH if unused. Primed or numbered codes have the meaning given here. code X(3) = -NH-(CH2CH2O)2-CH2CH2- (from -X-NH2 = -NH-(CH2CH2O)2-CH2CH2-NH2), C(COCCOCC[*:2])N[*:1]; code Z = not defined here; Su = not defined here
Experiments:
[1] = target: T1, human IgG1 (human, UniProt P01857-1 1-330 = IgG part); assay: batch binding, immobilised ligand
T1 construct: Calbiochem; human plasma IgG1 in anisotropy studies, myeloma-derived (cat. 400120) in batch/column studies; also called hIgG1
Experimental: (§1) IgG targets were diluted into 10 mM phosphate buffer containing 150 mM NaCl and 0.01% Tween 20, pH 7.2 (PBST) or 50 mM Tris buffer containing, 150 mM NaCl and 0.01% Tween-20, pH 7.5 (TBST). Batch (static) binding and elution studies were conducted in a 96-well assay filterplate (Millipore MultiScreen-HV, with 0.45 μm Durapore membrane, product no. MAHVN4510). The target was allowed to incubate with the resin for 1-1.5 hours with shaking at room temperature. Unbound target was collected by centrifugation of samples from the assay plate directly into a low-UV absorbing 96-well collection plate (Costar, product no. 3635 or Greiner, product no. 655801). The unbound target was then quantitated by reading the absorbance at 280 nm (normalized to 1 cm pathlength, 1.4 mg/ml A280 extinction coefficient) of the collection plate on a microplate spectrophotometer (Molecular Devices Corp., SPECTRAmax PLUS) against a buffer blank.
(§2) The percentage bound target was determined by subtracting the mass determined as unbound from the corresponding condition's control values (control non-filtered added directly to the collection plate and/or the negative control). The assay plate was washed (3×) with 200 μl of binding buffer by vacuum filtration followed by addition of 100 μl of various elution conditions (e.g.: 0.1 M sodium bicarbonate buffer, pH 8.5 and/or 0.1 M sodium citrate buffer, pH 4.0). After a 30-60 minute incubation with shaking at room temperature, the eluted target was collected by centrifugation of the assay plate into another collection plate and quantitated in a similar manner. Percent elution of total load was then determined to characterize elution recovery efficiency under various conditions.

[2] = target: T2, human IgG2 (human, UniProt P01859-1 1-326 = IgG part); assay: batch binding, immobilised ligand
T2 construct: Calbiochem; plasma IgG2 in anisotropy studies, myeloma-derived (cat. 400122) in batch/column studies; also called hIgG2
Experimental: as §1, §2

[3] = target: T3, human IgG3 (human, UniProt P01860-1 1-377); assay: batch binding, immobilised ligand
T3 construct: Calbiochem; plasma IgG3 in anisotropy studies, myeloma-derived (cat. 400124) in batch/column studies; also called hIgG3
Experimental: as §1, §2

[4] = target: T4, human IgG4 (human, UniProt P01861-1 1-327 = IgG part); assay: batch binding, immobilised ligand
T4 construct: Calbiochem; plasma IgG4 in anisotropy studies, myeloma-derived (cat. 400126) in batch/column studies; also called hIgG4
Experimental: as §1, §2

[5] = target: T1, human IgG1; assay: mini-column chromatography, immobilised ligand
Experimental: (§3) Thus, 250 μg of target (hIgG1, hIgG2, hIgG3, hIgG4, goat IgG and bovine IgG) at 0.250 mg/ml in PBST, pH 7.2 or TBST, pH 7.3 was loaded onto a 350 μl column (3×50 mm) run at 0.200 ml/min. flowrate (170 cm/hr). Flowthrough, elution and cleaning fractions were collected and assayed for total protein recovery by size-exclusion HPLC.

[6] = target: T2, human IgG2; assay: mini-column chromatography, immobilised ligand
Experimental: as §3

[7] = target: T4, human IgG4; assay: mini-column chromatography, immobilised ligand
Experimental: as §3

[8] = target: T5, human IgG (unfractionated, polyclonal); assay: filterplate; 25 mg human IgG applied per ml resin
T5 construct: also called hIgG; polyclonal human IgG
Experimental: After incubation of the samples, with shaking, at room temperature for one hour, the supernatant liquid from each well, containing unbound IgG, was collected by centrifugation into the cognate well of a collection plate. The assay plate was washed three times with PBST (200 μl/wash) and bound IgG was eluted from the media samples by incubation for 30-60 minutes at room temperature in 100 μl Elution Buffer (100 mM CAPS, pH 11.5). Eluates were collected by centrifugation for analysis. Protein concentrations were determined from A₂₈₀ measurements and plotted as a function of mg human IgG bound per ml resin vs. mg human IgG applied per ml resin.
These were subsequently tested in batch filterplate format for relative static capacity, human IgG subtype and species specificity as previously described. In addition, total dynamic capacities were determined for comparison. […] The static capacity (mg IgG bound per ml resin) was measured at the 2.5 mg/ml target concentration (25 mg human IgG applied per ml resin).

[9] = target: T3, human IgG3; assay: anisotropy; pH 4.0 + salt
[10] = target: T3, human IgG3; assay: anisotropy; pH 4.0 - salt
[11] = target: T1, human IgG1; assay: anisotropy; pH 4.0 + salt
[12] = target: T2, human IgG2; assay: anisotropy; pH 4.0 + salt
[13] = target: T1, human IgG1; assay: anisotropy; pH 4.0 - salt
[14] = target: T2, human IgG2; assay: anisotropy; pH 4.0 - salt
[15] = target: T1, human IgG1; assay: anisotropy; pH 7.5 - salt
[16] = target: T2, human IgG2; assay: anisotropy; pH 7.5 - salt
[17] = target: T4, human IgG4; assay: anisotropy; pH 4.0 - salt
[18] = target: T3, human IgG3; assay: anisotropy; pH 7.5 + salt
[19] = target: T4, human IgG4; assay: anisotropy; pH 7.5 - salt
[20] = target: T3, human IgG3; assay: anisotropy; pH 9.5 + salt

T3 sequence (P01860 other isoform, or with tags, fused parts or gaps): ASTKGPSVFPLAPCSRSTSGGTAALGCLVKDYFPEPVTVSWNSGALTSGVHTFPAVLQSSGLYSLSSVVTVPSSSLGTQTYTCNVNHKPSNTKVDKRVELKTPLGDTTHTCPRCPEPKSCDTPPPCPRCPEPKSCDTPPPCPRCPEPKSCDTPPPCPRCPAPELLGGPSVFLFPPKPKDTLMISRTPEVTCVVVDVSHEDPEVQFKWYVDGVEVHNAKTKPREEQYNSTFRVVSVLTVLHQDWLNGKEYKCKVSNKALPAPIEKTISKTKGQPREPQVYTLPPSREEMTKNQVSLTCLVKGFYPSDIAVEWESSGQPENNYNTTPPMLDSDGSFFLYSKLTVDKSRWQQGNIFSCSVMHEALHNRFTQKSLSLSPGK
T2 sequence (P01859 other isoform, or with tags, fused parts or gaps): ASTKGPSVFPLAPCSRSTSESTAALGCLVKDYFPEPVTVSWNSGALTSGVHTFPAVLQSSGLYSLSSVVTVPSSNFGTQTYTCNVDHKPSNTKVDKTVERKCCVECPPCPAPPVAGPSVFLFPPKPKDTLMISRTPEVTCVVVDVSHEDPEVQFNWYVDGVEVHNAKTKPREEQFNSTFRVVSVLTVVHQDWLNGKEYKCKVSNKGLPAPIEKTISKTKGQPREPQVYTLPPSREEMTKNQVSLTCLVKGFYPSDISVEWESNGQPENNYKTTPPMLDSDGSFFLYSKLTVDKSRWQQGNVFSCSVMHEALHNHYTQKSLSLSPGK
T4 sequence (P01861 other isoform, or with tags, fused parts or gaps): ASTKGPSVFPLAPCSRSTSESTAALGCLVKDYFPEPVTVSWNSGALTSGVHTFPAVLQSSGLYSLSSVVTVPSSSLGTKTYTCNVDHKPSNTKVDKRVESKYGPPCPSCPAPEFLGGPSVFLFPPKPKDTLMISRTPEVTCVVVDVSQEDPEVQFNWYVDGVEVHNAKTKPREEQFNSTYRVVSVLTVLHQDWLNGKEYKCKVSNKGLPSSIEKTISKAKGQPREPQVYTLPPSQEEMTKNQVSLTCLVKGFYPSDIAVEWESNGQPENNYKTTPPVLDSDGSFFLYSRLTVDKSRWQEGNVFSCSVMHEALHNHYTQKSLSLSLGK
T1 sequence (P01857 other isoform, or with tags, fused parts or gaps): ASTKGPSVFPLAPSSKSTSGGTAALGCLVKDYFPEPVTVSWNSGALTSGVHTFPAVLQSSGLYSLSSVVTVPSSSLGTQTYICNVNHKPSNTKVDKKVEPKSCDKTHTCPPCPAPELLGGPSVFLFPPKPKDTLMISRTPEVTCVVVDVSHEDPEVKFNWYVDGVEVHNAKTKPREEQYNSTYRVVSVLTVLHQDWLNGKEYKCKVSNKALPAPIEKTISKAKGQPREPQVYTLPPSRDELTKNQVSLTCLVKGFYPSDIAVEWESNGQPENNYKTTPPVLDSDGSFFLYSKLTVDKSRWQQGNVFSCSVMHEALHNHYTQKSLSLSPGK

B1: DX253 (peptide)
peptide: Ac-GDRRACSRDWSGALVWCAGHEPGPEGGGK-NH2
modifications: not fully specified (bridges); printed as Ac-GDRRACSRDWSGALVWCAGHEPGPEGGGK-NH2; cysteine pairing not given here
notes: immobilised on Sepharose in batch/column assays
[1]
  Bound (% of Total Load): 86%
  bdg % (of Total Load): 56%
[2]
  Bound (% of Total Load): 81%
  bdg % (of Total Load): 63%
[3]
  Bound (% of Total Load): 0%
  bdg % (of Total Load): 15%
[4]
  Bound (% of Total Load): 60%
  bdg % (of Total Load): 40%
[5]
  binding efficiency: > 90%
[6]
  binding efficiency: > 90%
[7]
  binding efficiency: > 90%

B2: DX1072 (peptide)
peptide: Ac-GDNPMCWRAHWWEDAYCINHEPGPEGGGK-NH2
modifications: not fully specified (bridges); printed as Ac-GDNPMCWRAHWWEDAYCINHEPGPEGGGK-NH2; cysteine pairing not given here
notes: Derivative of DX596 (Lys-Lys to Arg-Ala and adjacent Ser to His); immobilised
[1]
  Bound (% of Total Load): 31%
[2]
  Bound (% of Total Load): 21%
[3]
  Bound (% of Total Load): 0%
[4]
  Bound (% of Total Load): 15%

B3: DX907 (peptide)
peptide: Ac-GDDHMCVYTTWGELIWCDNH-{code X(3)-NH2}
modifications: not fully specified (bridges); printed as Ac-GDDHMCVYTTWGELIWCDNH-X-NH2; cysteine pairing not given here
notes: DX249 derivative; immobilised
[8]
  Static Cap.: 10 mg/mL

B4: DX597 (peptide)
peptide: Ac-GDSWNCAFHHNEMVWCDDGGTPGPEGGGK-NH2
modifications: not fully specified (bridges); printed as Ac-GDSWNCAFHHNEMVWCDDGGTPGPEGGGK-NH2; cysteine pairing not given here
notes: Immobilised on Sepharose
[1]
  Bound (% of Total Load): 93%
[2]
  Bound (% of Total Load): 90%
[3]
  Bound (% of Total Load): 0%
[4]
  Bound (% of Total Load): 71%

B5: DX392 (peptide)
peptide: Ac-AGSYWCKIWDVCPQSPGPEGGGK-NH2
modifications: not fully specified (bridges); printed as Ac-AGSYWCKIWDVCPQSPGPEGGGK-NH2; cysteine pairing not given here
notes: immobilised in batch assays
[9]
  Kd: 0.6 µM
[10]
  Kd: 0.32 µM

B6: DX909 (peptide)
peptide: Ac-GDDHMCVYTTWGELIWCDNH-{code X(3)-Su-code X(3)-NH2}
modifications: not fully specified (bridges); printed as Ac-GDDHMCVYTTWGELIWCDNH-X-Su-X-NH2; cysteine pairing not given here; reading uncertain
notes: DX249 derivative; immobilised
[8]
  Static Cap.: 11 mg/mL

B7: DX911 (peptide)
peptide: Ac-GDDHMCVYTTWGELIWCDNH-{code X(3)-code Z-code X(3)-NH2}
modifications: not fully specified (bridges); printed as Ac-GDDHMCVYTTWGELIWCDNH-X-Z-X-NH2; cysteine pairing not given here; reading uncertain
notes: DX249 derivative; immobilised
[8]
  Static Cap.: 9 mg/mL

B8: DX389 (peptide)
peptide: Ac-AGPHNCDDHYWYCKWFPGPEGGGK-NH2
modifications: not fully specified (bridges); printed as Ac-AGPHNCDDHYWYCKWFPGPEGGGK-NH2; cysteine pairing not given here
notes: immobilised in batch assays
[9]
  Kd: 1.8 µM
[10]
  Kd: 2.5 µM

B9: DX413 (peptide)
peptide: Ac-AGYWYCWFPDRPECPLYPGPEGGGK-NH2
modifications: not fully specified (bridges); printed as Ac-AGYWYCWFPDRPECPLYPGPEGGGK-NH2; cysteine pairing not given here
[9]
  Kd: 1.1 µM
[10]
  Kd: 0.84 µM

B10: DX1071 (peptide)
peptide: Ac-GDNPMCWRASWWEDAYCINHEPGPEGGGK-NH2
modifications: not fully specified (bridges); printed as Ac-GDNPMCWRASWWEDAYCINHEPGPEGGGK-NH2; cysteine pairing not given here
notes: Derivative of DX596 (two internal lysines replaced by arginine and alanine); immobilised
[1]
  Bound (% of Total Load): 7%
[2]
  Bound (% of Total Load): 2%
[3]
  Bound (% of Total Load): 0%
[4]
  Bound (% of Total Load): 1%

B11: DX1070 (peptide)
peptide: Ac-GDWGECTVTSYGELIWCGGLEPGPEGGGK-NH2
modifications: not fully specified (bridges); printed as Ac-GDWGECTVTSYGELIWCGGLEPGPEGGGK-NH2; cysteine pairing not given here
notes: Immobilised on Sepharose
[1]
  Bound (% of Total Load): 87%
[2]
  Bound (% of Total Load): 82%
[3]
  Bound (% of Total Load): 0%
[4]
  Bound (% of Total Load): 59%

## Ac-AGTYWCTFWELPCDPAPGPEGGGK-NH2 (cysteine pairing not given here, immobilised in batch/column assays) [DX404]
[11]
  Kd: 2 µM
[12]
  Kd: 2 µM
[13]
  Kd: 1.5 µM
[14]
  Kd: 1 µM
[15]
  Kd: 8.8 µM
[16]
  Kd: 8.6 µM

B12: DX398 (peptide)
peptide: Ac-AGAATCSTSYWYYQWFCTDSPGPEGGGK-NH2
modifications: not fully specified (bridges); printed as Ac-AGAATCSTSYWYYQWFCTDSPGPEGGGK-NH2; cysteine pairing not given here
notes: immobilised in batch assays
[9]
  Kd: 0.04 µM
[13]
  Kd: 2.4 µM
[14]
  Kd: 1.8 µM
[10]
  Kd: 0.02 µM
[17]
  Kd: 1.6 µM
[18]
  Kd: 0.3 µM
[15]
  Kd: 4.6 µM
[19]
  Kd: 3.5 µM
[20]
  Kd: 0.3 µM

Source: US20030199671A1 (published 2003)
